Measurements from US11648290B2, “Cartilage-homing peptides” (FRED HUTCHINSON CANCER CENTER, priority 2015, dated 2023).

Key:
[1] = Temperature stability of peptides (RP-HPLC); assay type: physicochemical
Experimental: This example illustrates peptide stability at high temperatures. Peptides were first suspended in 500 μl of ddH2O to a stock concentration of 2 mg/ml. Reactions were prepared by adding 6.25 μl of peptide from the stock solution with 95 μl ddH2O and incubated at room temperature, 70° C., or 100° C. for one hour in a Thermocycler. RP-HPLC was then run on samples using an Agilent 1260 HPLC equipped with a C-18 Poroshell 120B column. Sample were analyzed by a gradient method with a mobile phase of Solvent A (water with 0.1% TFA) and Solvent B (acetonitrile with 0.1% TFA). Solvent B was ramped up from 5%-45% of the mobile phase over a period of 10 minutes.
Peptides of SEQ ID NO: 28 and SEQ ID NO: 483 were analyzed by HPLC after incubation at room temperature (25° C.), 70° C., or 100° C. for one hour.

trypsin = target: T1, trypsin (Bos taurus, UniProt P00760); assay: Peptide resistance to trypsin digestion (RP-HPLC); assay type: in vitro ADME
T1 construct: gene PRSS1
T1 sequence (P00760 24-246): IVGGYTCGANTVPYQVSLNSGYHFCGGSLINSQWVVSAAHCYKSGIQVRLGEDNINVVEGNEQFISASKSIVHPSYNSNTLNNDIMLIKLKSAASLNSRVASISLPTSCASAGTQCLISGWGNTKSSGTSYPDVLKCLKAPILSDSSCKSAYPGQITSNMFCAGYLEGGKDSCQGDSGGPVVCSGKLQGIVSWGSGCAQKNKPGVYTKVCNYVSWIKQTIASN
Experimental: Various peptides were suspended in 500 μl of ddH2O at a stock concentration of 2 mg/ml. Reactions were prepared with 12.5 μg peptide and 5 μg trypsin in 25 mM Tris/75 mM NaCl buffer (pH 7.0) and incubated for 30 minutes at 37.5° C. Reactions were quenched with 5 μg of soybean trypsin inhibitor and 10 mM dithiothreitol (DTT). Reversed phase HPLC (RP-HPLC) was run on samples using an Agilent 1260 HPLC equipped with a C-18 Poroshell 120B column. Sample were analyzed by a gradient method with a mobile phase of Solvent A (water with 0.1% TFA) and Solvent B (acetonitrile with 0.1% TFA). Solvent B was ramped up from 5%-45% of the mobile phase over a period of 10 minutes.

GSISIGIKCSPSIDLCEGQCRIRKYFTGYCSGDTCHCSG [SEQ ID NO: 483]
Stability after heat incubation (HPLC) ([1]; 70 C for 1 hour): resistant to heat-induced degradation
Stability after heat incubation (HPLC) ([1]; 100 C for 1 hour): underwent various degrees of degradation
Resistance to degradation by trypsin (trypsin; 12.5 ug peptide, 5 ug trypsin, pH 7.0, 30 minutes at 37.5 C): partially resistant to degradation by trypsin
Resistance to reduction by DTT (FIG. 54) (trypsin; 10 mM DTT): partially resistant to reduction by DTT
